The text below walks through data of publication PMC10659161, “Cryo-electron tomography reveals the binding and release states of the major adhesion complex from Mycoplasma genitalium” (PLOS Pathogens, 2023).

The assay deals with T1, P140 (Mycoplasma genitalium, UniProt P20796 59-1444).
T1 construct: P140 of the nap particle adhesion complex, Mycoplasma genitalium G37; endogenous and not truncated, with stalk, transmembrane helix and intracellular region (residues up to 1444 are spoken of); The same endogenous protein was also studied in the nap particle purified from M. genitalium; that purification is described in an earlier publication of the authors; also called P140 adhesin of the nap …
T1 sequence: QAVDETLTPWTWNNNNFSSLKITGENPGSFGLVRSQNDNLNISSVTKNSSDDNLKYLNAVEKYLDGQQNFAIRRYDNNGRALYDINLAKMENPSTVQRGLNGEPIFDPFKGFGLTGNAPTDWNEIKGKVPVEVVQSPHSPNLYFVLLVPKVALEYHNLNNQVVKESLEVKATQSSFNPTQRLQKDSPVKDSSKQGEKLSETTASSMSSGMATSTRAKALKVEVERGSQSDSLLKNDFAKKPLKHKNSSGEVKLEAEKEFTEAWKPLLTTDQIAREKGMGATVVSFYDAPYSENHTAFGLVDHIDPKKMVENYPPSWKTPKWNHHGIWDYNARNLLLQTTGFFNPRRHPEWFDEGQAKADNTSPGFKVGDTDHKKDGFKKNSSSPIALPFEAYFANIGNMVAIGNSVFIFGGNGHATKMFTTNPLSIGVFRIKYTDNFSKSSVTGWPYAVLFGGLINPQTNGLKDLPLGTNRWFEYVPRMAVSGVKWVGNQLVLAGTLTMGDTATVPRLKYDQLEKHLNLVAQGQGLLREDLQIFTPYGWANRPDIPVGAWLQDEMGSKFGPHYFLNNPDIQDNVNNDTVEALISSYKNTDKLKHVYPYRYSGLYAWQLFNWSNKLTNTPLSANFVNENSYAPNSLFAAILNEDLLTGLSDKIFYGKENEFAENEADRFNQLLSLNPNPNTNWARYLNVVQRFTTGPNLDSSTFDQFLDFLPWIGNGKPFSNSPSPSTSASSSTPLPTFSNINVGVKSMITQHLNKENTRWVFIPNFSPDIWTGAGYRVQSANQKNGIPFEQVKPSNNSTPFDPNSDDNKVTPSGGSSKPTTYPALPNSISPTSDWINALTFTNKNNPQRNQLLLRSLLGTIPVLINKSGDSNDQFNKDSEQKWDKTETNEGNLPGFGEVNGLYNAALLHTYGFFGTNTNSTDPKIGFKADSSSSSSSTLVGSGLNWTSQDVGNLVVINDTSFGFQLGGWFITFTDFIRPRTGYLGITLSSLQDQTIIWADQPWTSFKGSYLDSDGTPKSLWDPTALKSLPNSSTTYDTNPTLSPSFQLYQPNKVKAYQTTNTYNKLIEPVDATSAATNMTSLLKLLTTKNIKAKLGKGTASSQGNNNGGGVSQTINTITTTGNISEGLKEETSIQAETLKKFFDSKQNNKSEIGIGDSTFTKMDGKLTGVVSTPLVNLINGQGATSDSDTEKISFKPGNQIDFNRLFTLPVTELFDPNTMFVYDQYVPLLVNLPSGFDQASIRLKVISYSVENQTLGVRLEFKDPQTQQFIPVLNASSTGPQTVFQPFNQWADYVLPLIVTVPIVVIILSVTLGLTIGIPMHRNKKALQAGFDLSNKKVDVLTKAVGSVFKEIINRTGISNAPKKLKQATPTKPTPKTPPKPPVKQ
In words: cryo-EM structure; single-particle cryo-EM of the isolated nap particle purified from M. genitalium, with and without soaking in 10 mM 6'-SL (75 mM Tris-HCl pH 7.4, 400 mM NaCl, 5% glycerol, 0.5% octylglucoside); heterodimer classes at 3.3 and 3.7 Å, tetramer classes at 8.3, 7.3 and 7.7 Å. To be noted: both partners purified.

B1: P110 (natural protein)
chain: NTFLVKEDSKNVTAYTPFATPITDSKSDLVSLAQLDSSYQIADQTIHNTNLFVLFKSRDVKVKYESSGSNNISFDSTSQGEKPSYVVEFTNSTNIGIKWTMVKKYQLDVPNVSSDMNQVLKNLILEQPLTKYTLNSSLAKEKGKTQREVHLGSGQANQWTSQRNQHDLNNNPSPNASTGFKLTTGNAYRKLSESWPIYEPIDGTKQGKGKDSSGWSSTEENEAKNDAPSVSGGGSSSGTFNKYLNTKQALESIGILFDDQTPRNVITQLYYASTSKLAVTNNHIVVMGNSFLPSMWYWVVERSAQENASNKPTWFANTNLDWGEDKQKQFVENQLGYKETTSTNSHNFHSKSFTQPAYLISGIDSVNDQIIFSGFKAGSVGYDSSSSSSSSSSSSTKDQALAWSTTTSLDSKTGYKDLVTNDTGLNGPINGSFSIQDTFSFVVPYSGNHTNNGTTGPIKTAYPVKKDQKSTVKINSLINATPLNSYGDEGIGVFDALGLNYNFKSNQERLPSRTDQIFVYGIVSPNELRSAKSSADSTGSDTKVNWSNTQSRYLPVPYNYSEGIIDADGFKRPENRGASVTTFSGLKSIAPDGFANSIANFSVGLKAGIDPNPVMSGKKANYGAVVLTRGGVVRLNFNPGNDSLLSTTDNNIAPISFSFTPFTAAESAVDLTTFKEVTYNQESGLWSYIFDSSLKPSHDGKQTPVTDNMGFSVITVSRTGIELNQDQATTTLDVAPSALAVQSGIQSTTQTLTGVLPLSEEFSAVIAKDSDQNKIDIYKNNNGLFEIDTQLSNSVATNNGGLAPSYTENRVDAWGKVEFADNSVLQARNLVDKTVDEIINTPEILNSFFRFTPAFEDQKATLVATKQSDTSLSVSPRIQFLDGNFYDLNSTIAGVPLNIGFPSRVFAGFAALPAWVIPVSVGSSVGILFILLVLGLGIGIPMYRVRKLQDASFVNVFKKVDTLTTAVGSVYKKIITQTGVVKKAPSALKAANPSVKKPAAFLKPPVQPPSKPEGEQKAVEVKSEETKS
notes: P110 of the nap particle adhesion complex, Mycoplasma genitalium G37; endogenous and not truncated, with stalk, transmembrane helix and intracellular region (residues up to 1053 are spoken of); The same endogenous protein was also studied in the nap particle purified from M. genitalium; that purification is described in an earlier publication of the authors; also called P110 adhesin of the nap …
B1: the binding result was “binds”.
